Here are results for eleven molecules from US20260201008A1, “SECRETIN-DERIVED GLP1R SELECTIVE AGONISTS” (GUBRA A/S, priority 2023, published 2026).

Numbered stars: 1 amine (or outer) side, 2 acyl side, 3 side chain; on linkers, the order of the positions; unused ones are H or OH. Square brackets hold non-standard residues; d marks the D form. Side chains are listed from the residue outwards. Ends that are not written are not given here. * marks the point of attachment. C20 diacid = O=C(O)CCCCCCCCCCCCCCCCCCC(=O)*; γGlu = O=C(O)[C@H](CCC(=O)[*:2])N[*:1]; AEEA = NCCOCCOCC(=O)O; Aib = CC(C)(N)C(=O)O

Experiment [1] deals with human GLP-1 receptor (hGLP1R) (human, UniProt P43220 24-463). Description: cell-based or functional assay.
Experiment [2] addresses human secretin receptor (hSCTR) (human, UniProt P47872 23-440). Put plainly: cell-based or functional assay.

human secretin receptor (hSCTR), sequence (P47872 23-440): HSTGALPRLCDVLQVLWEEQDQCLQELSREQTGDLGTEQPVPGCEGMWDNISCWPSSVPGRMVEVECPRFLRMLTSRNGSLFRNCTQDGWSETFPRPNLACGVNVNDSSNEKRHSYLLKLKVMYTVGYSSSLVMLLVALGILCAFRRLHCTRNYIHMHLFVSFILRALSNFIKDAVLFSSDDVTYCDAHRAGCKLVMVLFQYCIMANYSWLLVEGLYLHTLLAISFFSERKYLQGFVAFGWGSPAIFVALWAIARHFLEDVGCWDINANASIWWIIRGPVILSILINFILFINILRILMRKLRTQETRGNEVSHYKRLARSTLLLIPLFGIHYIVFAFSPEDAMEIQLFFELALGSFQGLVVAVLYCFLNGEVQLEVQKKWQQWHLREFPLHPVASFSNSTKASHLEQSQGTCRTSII

B1: SEQ ID NO: 190 (peptide)
peptide: H[Aib]EGTFTSDWSFLLEGAALQRFIQWLV-NH2
modifications: N-terminus assumed
SMILES: CC[C@H](C)[C@H](NC(=O)[C@H](Cc1ccccc1)NC(=O)[C@H](CCCNC(=N)N)NC(=O)[C@H](CCC(N)=O)NC(=O)[C@H](CC(C)C)NC(=O)[C@H](C)NC(=O)[C@H](C)NC(=O)CNC(=O)[C@H](CCC(=O)O)NC(=O)[C@H](CC(C)C)NC(=O)[C@H](CC(C)C)NC(=O)[C@H](Cc1ccccc1)NC(=O)[C@H](CO)NC(=O)[C@H](Cc1c[nH]c2ccccc12)NC(=O)[C@H](CC(=O)O)NC(=O)[C@H](CO)NC(=O)[C@@H](NC(=O)[C@H](Cc1ccccc1)NC(=O)[C@@H](NC(=O)CNC(=O)[C@H](CCC(=O)O)NC(=O)C(C)(C)NC(=O)[C@@H](N)Cc1c[nH]cn1)[C@@H](C)O)[C@@H](C)O)C(=O)N[C@@H](CCC(N)=O)C(=O)N[C@@H](Cc1c[nH]c2ccccc12)C(=O)N[C@@H](CC(C)C)C(=O)N[C@H](C(N)=O)C(C)C
In the case of B1, in experiment [1], the “pEC50 hGLPR1” value is 10.2 -log M. Besides, the “pEC50 hSCTR” value in experiment [2] is 7 -log M.

B2: SEQ ID NO: 189 (peptide)
peptide: H[Aib]EGTFTSDWSYLLEGAALQRFIQWLV-NH2
modifications: N-terminus assumed
SMILES: CC[C@H](C)[C@H](NC(=O)[C@H](Cc1ccccc1)NC(=O)[C@H](CCCNC(=N)N)NC(=O)[C@H](CCC(N)=O)NC(=O)[C@H](CC(C)C)NC(=O)[C@H](C)NC(=O)[C@H](C)NC(=O)CNC(=O)[C@H](CCC(=O)O)NC(=O)[C@H](CC(C)C)NC(=O)[C@H](CC(C)C)NC(=O)[C@H](Cc1ccc(O)cc1)NC(=O)[C@H](CO)NC(=O)[C@H](Cc1c[nH]c2ccccc12)NC(=O)[C@H](CC(=O)O)NC(=O)[C@H](CO)NC(=O)[C@@H](NC(=O)[C@H](Cc1ccccc1)NC(=O)[C@@H](NC(=O)CNC(=O)[C@H](CCC(=O)O)NC(=O)C(C)(C)NC(=O)[C@@H](N)Cc1c[nH]cn1)[C@@H](C)O)[C@@H](C)O)C(=O)N[C@@H](CCC(N)=O)C(=O)N[C@@H](Cc1c[nH]c2ccccc12)C(=O)N[C@@H](CC(C)C)C(=O)N[C@H](C(N)=O)C(C)C
Regarding B2, the “pEC50 hGLPR1” value in experiment [1] is 10.8 -log M. In addition, the “pEC50 hSCTR” value in experiment [2] is 6.8 -log M.

B3: SEQ ID NO: 184 (peptide)
peptide: H[Aib]EGTFTSDVSVLLEGAALQRFIQWLV-NH2
modifications: N-terminus assumed
SMILES: CC[C@H](C)[C@H](NC(=O)[C@H](Cc1ccccc1)NC(=O)[C@H](CCCNC(=N)N)NC(=O)[C@H](CCC(N)=O)NC(=O)[C@H](CC(C)C)NC(=O)[C@H](C)NC(=O)[C@H](C)NC(=O)CNC(=O)[C@H](CCC(=O)O)NC(=O)[C@H](CC(C)C)NC(=O)[C@H](CC(C)C)NC(=O)[C@@H](NC(=O)[C@H](CO)NC(=O)[C@@H](NC(=O)[C@H](CC(=O)O)NC(=O)[C@H](CO)NC(=O)[C@@H](NC(=O)[C@H](Cc1ccccc1)NC(=O)[C@@H](NC(=O)CNC(=O)[C@H](CCC(=O)O)NC(=O)C(C)(C)NC(=O)[C@@H](N)Cc1c[nH]cn1)[C@@H](C)O)[C@@H](C)O)C(C)C)C(C)C)C(=O)N[C@@H](CCC(N)=O)C(=O)N[C@@H](Cc1c[nH]c2ccccc12)C(=O)N[C@@H](CC(C)C)C(=O)N[C@H](C(N)=O)C(C)C
Turning to B3, the “pEC50 hGLPR1” value in experiment [1] was 10.6 -log M. Also, in experiment [2], the “pEC50 hSCTR” value was 6.6 -log M.

B4: SEQ ID NO: 188 (peptide)
peptide: H[Aib]EGTFTSDWSVLLEGAALQRFIQWLV-NH2
modifications: N-terminus assumed
SMILES: CC[C@H](C)[C@H](NC(=O)[C@H](Cc1ccccc1)NC(=O)[C@H](CCCNC(=N)N)NC(=O)[C@H](CCC(N)=O)NC(=O)[C@H](CC(C)C)NC(=O)[C@H](C)NC(=O)[C@H](C)NC(=O)CNC(=O)[C@H](CCC(=O)O)NC(=O)[C@H](CC(C)C)NC(=O)[C@H](CC(C)C)NC(=O)[C@@H](NC(=O)[C@H](CO)NC(=O)[C@H](Cc1c[nH]c2ccccc12)NC(=O)[C@H](CC(=O)O)NC(=O)[C@H](CO)NC(=O)[C@@H](NC(=O)[C@H](Cc1ccccc1)NC(=O)[C@@H](NC(=O)CNC(=O)[C@H](CCC(=O)O)NC(=O)C(C)(C)NC(=O)[C@@H](N)Cc1c[nH]cn1)[C@@H](C)O)[C@@H](C)O)C(C)C)C(=O)N[C@@H](CCC(N)=O)C(=O)N[C@@H](Cc1c[nH]c2ccccc12)C(=O)N[C@@H](CC(C)C)C(=O)N[C@H](C(N)=O)C(C)C
Consider B4, for which the “pEC50 hGLPR1” value in experiment [1] is 10.1 -log M. The “pEC50 hSCTR” value in experiment [2] is 7.5 -log M.

In the case of H[Aib]EGTFTSDVSRLK([AEEA-AEEA-γGlu-C20 diacid])ELAASQRFLEHLV-NH2 [SEQ ID NO: 19], the “pEC50 hGLPR1” value in experiment [1] was 10.1 -log M. Also, the “pEC50 hSCTR” value in experiment [2] is 6.2 -log M.

B5: SEQ ID NO: 182 (peptide)
peptide: H[Aib]EGTFTSDVSGLLEGAALQRFIQWLV-NH2
modifications: N-terminus assumed
SMILES: CC[C@H](C)[C@H](NC(=O)[C@H](Cc1ccccc1)NC(=O)[C@H](CCCNC(=N)N)NC(=O)[C@H](CCC(N)=O)NC(=O)[C@H](CC(C)C)NC(=O)[C@H](C)NC(=O)[C@H](C)NC(=O)CNC(=O)[C@H](CCC(=O)O)NC(=O)[C@H](CC(C)C)NC(=O)[C@H](CC(C)C)NC(=O)CNC(=O)[C@H](CO)NC(=O)[C@@H](NC(=O)[C@H](CC(=O)O)NC(=O)[C@H](CO)NC(=O)[C@@H](NC(=O)[C@H](Cc1ccccc1)NC(=O)[C@@H](NC(=O)CNC(=O)[C@H](CCC(=O)O)NC(=O)C(C)(C)NC(=O)[C@@H](N)Cc1c[nH]cn1)[C@@H](C)O)[C@@H](C)O)C(C)C)C(=O)N[C@@H](CCC(N)=O)C(=O)N[C@@H](Cc1c[nH]c2ccccc12)C(=O)N[C@@H](CC(C)C)C(=O)N[C@H](C(N)=O)C(C)C
Regarding B5, the “pEC50 hGLPR1” value in experiment [1] is 10.3 -log M. In addition, the “pEC50 hSCTR” value in experiment [2] is 6.8 -log M.

B6: SEQ ID NO: 181 (peptide)
peptide: H[Aib]EGTFTSDVSYLLEGAALQRFIQWLV-NH2
modifications: N-terminus assumed
SMILES: CC[C@H](C)[C@H](NC(=O)[C@H](Cc1ccccc1)NC(=O)[C@H](CCCNC(=N)N)NC(=O)[C@H](CCC(N)=O)NC(=O)[C@H](CC(C)C)NC(=O)[C@H](C)NC(=O)[C@H](C)NC(=O)CNC(=O)[C@H](CCC(=O)O)NC(=O)[C@H](CC(C)C)NC(=O)[C@H](CC(C)C)NC(=O)[C@H](Cc1ccc(O)cc1)NC(=O)[C@H](CO)NC(=O)[C@@H](NC(=O)[C@H](CC(=O)O)NC(=O)[C@H](CO)NC(=O)[C@@H](NC(=O)[C@H](Cc1ccccc1)NC(=O)[C@@H](NC(=O)CNC(=O)[C@H](CCC(=O)O)NC(=O)C(C)(C)NC(=O)[C@@H](N)Cc1c[nH]cn1)[C@@H](C)O)[C@@H](C)O)C(C)C)C(=O)N[C@@H](CCC(N)=O)C(=O)N[C@@H](Cc1c[nH]c2ccccc12)C(=O)N[C@@H](CC(C)C)C(=O)N[C@H](C(N)=O)C(C)C
For the molecule B6, in experiment [1], the “pEC50 hGLPR1” value was 10.3 -log M. The “pEC50 hSCTR” value in experiment [2] is 6.7 -log M.

With H[Aib]EGTFTSDWSYLK([AEEA-AEEA-γGlu-C20 diacid])EEA[Aib]LQRFLEHLV-NH2 [SEQ ID NO: 185], the “pEC50 hGLPR1” value in experiment [1] is 11.2 -log M. Besides, the “pEC50 hSCTR” value in experiment [2] was 7.3 -log M.

B7: SEQ ID NO: 183 (peptide)
peptide: H[Aib]EGTFTSDVSWLLEGAALQRFIQWLV-NH2
modifications: N-terminus assumed
SMILES: CC[C@H](C)[C@H](NC(=O)[C@H](Cc1ccccc1)NC(=O)[C@H](CCCNC(=N)N)NC(=O)[C@H](CCC(N)=O)NC(=O)[C@H](CC(C)C)NC(=O)[C@H](C)NC(=O)[C@H](C)NC(=O)CNC(=O)[C@H](CCC(=O)O)NC(=O)[C@H](CC(C)C)NC(=O)[C@H](CC(C)C)NC(=O)[C@H](Cc1c[nH]c2ccccc12)NC(=O)[C@H](CO)NC(=O)[C@@H](NC(=O)[C@H](CC(=O)O)NC(=O)[C@H](CO)NC(=O)[C@@H](NC(=O)[C@H](Cc1ccccc1)NC(=O)[C@@H](NC(=O)CNC(=O)[C@H](CCC(=O)O)NC(=O)C(C)(C)NC(=O)[C@@H](N)Cc1c[nH]cn1)[C@@H](C)O)[C@@H](C)O)C(C)C)C(=O)N[C@@H](CCC(N)=O)C(=O)N[C@@H](Cc1c[nH]c2ccccc12)C(=O)N[C@@H](CC(C)C)C(=O)N[C@H](C(N)=O)C(C)C
For the molecule B7, the “pEC50 hGLPR1” value in experiment [1] is 10.3 -log M. The “pEC50 hSCTR” value in experiment [2] is 6.8 -log M.

B8: SEQ ID NO: 180 (peptide)
peptide: H[Aib]EGTFTSDVSELLEGAALQRFIQWLV-NH2
modifications: N-terminus assumed
SMILES: CC[C@H](C)[C@H](NC(=O)[C@H](Cc1ccccc1)NC(=O)[C@H](CCCNC(=N)N)NC(=O)[C@H](CCC(N)=O)NC(=O)[C@H](CC(C)C)NC(=O)[C@H](C)NC(=O)[C@H](C)NC(=O)CNC(=O)[C@H](CCC(=O)O)NC(=O)[C@H](CC(C)C)NC(=O)[C@H](CC(C)C)NC(=O)[C@H](CCC(=O)O)NC(=O)[C@H](CO)NC(=O)[C@@H](NC(=O)[C@H](CC(=O)O)NC(=O)[C@H](CO)NC(=O)[C@@H](NC(=O)[C@H](Cc1ccccc1)NC(=O)[C@@H](NC(=O)CNC(=O)[C@H](CCC(=O)O)NC(=O)C(C)(C)NC(=O)[C@@H](N)Cc1c[nH]cn1)[C@@H](C)O)[C@@H](C)O)C(C)C)C(=O)N[C@@H](CCC(N)=O)C(=O)N[C@@H](Cc1c[nH]c2ccccc12)C(=O)N[C@@H](CC(C)C)C(=O)N[C@H](C(N)=O)C(C)C
Take B8: the “pEC50 hGLPR1” value in experiment [1] was 10.8 -log M. The “pEC50 hSCTR” value in experiment [2] was 6.7 -log M.

B9: SEQ ID NO: 187 (peptide)
peptide: H[Aib]EGTFTSDWSGLLEGAALQRFIQWLV-NH2
modifications: N-terminus assumed
SMILES: CC[C@H](C)[C@H](NC(=O)[C@H](Cc1ccccc1)NC(=O)[C@H](CCCNC(=N)N)NC(=O)[C@H](CCC(N)=O)NC(=O)[C@H](CC(C)C)NC(=O)[C@H](C)NC(=O)[C@H](C)NC(=O)CNC(=O)[C@H](CCC(=O)O)NC(=O)[C@H](CC(C)C)NC(=O)[C@H](CC(C)C)NC(=O)CNC(=O)[C@H](CO)NC(=O)[C@H](Cc1c[nH]c2ccccc12)NC(=O)[C@H](CC(=O)O)NC(=O)[C@H](CO)NC(=O)[C@@H](NC(=O)[C@H](Cc1ccccc1)NC(=O)[C@@H](NC(=O)CNC(=O)[C@H](CCC(=O)O)NC(=O)C(C)(C)NC(=O)[C@@H](N)Cc1c[nH]cn1)[C@@H](C)O)[C@@H](C)O)C(=O)N[C@@H](CCC(N)=O)C(=O)N[C@@H](Cc1c[nH]c2ccccc12)C(=O)N[C@@H](CC(C)C)C(=O)N[C@H](C(N)=O)C(C)C
Take B9: in experiment [1], the “pEC50 hGLPR1” value was 10.4 -log M. Also, the “pEC50 hSCTR” value in experiment [2] was 7.3 -log M.
